Data: PMC7549839, “Posttranslational insertion of small membrane proteins by the bacterial signal recognition particle” (PLoS Biology, 2020)

B1: YohP (nontagged) (natural protein, E. coli, UniProt C1P609 1-27, looked up)
chain: MKIILWAVLIIFLIGLLVVTGVFKMIF
notes: YohP, small membrane protein of E. coli, 27 amino acids; also called nontagged YohP; source: E. coli C43(DE3) with pET19b-YohP, expressed in vivo, pulse-labelled with 35S methionine/cysteine; whole cells or cell fractions
B2: His-tagged YohP (YohPHis) (natural protein, E. coli, UniProt C1P609 1-27, looked up)
chain: MKIILWAVLIIFLIGLLVVTGVFKMIF
notes: YohP, small membrane protein of E. coli, 27 amino acids; also called YohP_(His6); source: E. coli, expressed in vivo from pBad24 (arabinose) or pET19b (IPTG); whole cells TCA precipitated or cell fractions (INV); not shown: His6, C-terminal, kept

What was measured:
[1] = biological target: the molecule itself; assay: SDS-resistant dimer on SDS-PAGE; in vivo expression, 35S pulse-chase labelling with rifampicin; whole cells or fractions TCA precipitated, Tricine-SDS-PAGE, autoradiography
[2] = biological target: the molecule itself; assay: SDS-resistant dimer on SDS-PAGE; YohPHis expressed in vivo; whole cells or cell fractions (INV), Tricine-SDS-PAGE, western blot with anti-His antibodies

Row | Protein | stoichiometry N [1] | stoichiometry N [2]
1 | B1 | 2 | 
2 | B2 |  | 2
